Source: PMC10082071

Experiments:
[1] = target: FXa-processed LOXL2, endogenous in human aortic smooth muscle cells treated with FXa (human (endogenous in HASMC)) (UniProt Q9Y4K0); test: proximity ligation; Duolink In Situ Red mouse/rabbit kit on HASMC on coverslips, fixed but not permeabilised; cells untreated, with FXa, or with FXa + rivaroxaban for 24 h; signal as mean gray value, % of average of controls
[2] = target: Lysyl oxidase-like 2 (LOXL2), full-length, endogenous in human aortic smooth muscle cells (human (endogenous in HASMC)) (UniProt Q9Y4K0); test: as above

## Type IV collagen, endogenous in the matrix of human aortic smooth muscle cells (complex)
[1]
  decrease of PLA signal with FXa against controls: 50 % (decrease)
[2]
  increase of PLA signal with rivaroxaban (full-length LOXL2 accumulated): 80 % (increase)
